Source: article PMC12369479, “A monomer–dimer switch modulates the activity of plant adenosine kinase” (Journal of Experimental Botany, 2025)
One block for each substance: values may come before it.

Columns and labels:
[1] = molecular target: Arabidopsis thaliana adenosine kinase 2 (6×His-AtADK2) (Arabidopsis thaliana) (UniProt Q9LZG0); experiment: dynamic light scattering; AtADK2 at higher concentrations (5 mg/ml) (preliminary results)
[2] = molecular target: Arabidopsis thaliana adenosine kinase 2 (6×His-AtADK2) (Arabidopsis thaliana) (UniProt Q9LZG0); experiment: SEC; gel permeation chromatography of 6×His-AtADK2 at 1.2 mg/ml (preliminary results, Supplementary Fig. S10)
[3] = molecular target: Physcomitrella patens adenosine kinase 1 (PpADK1) (Physcomitrella patens) (UniProt O49923); experiment: AUC; sedimentation velocity of PpADK1 at a higher concentration (>0.3 mg/ml), 20 mM Tris-HCl pH 7.5, 150 mM NaCl, 10 mM MgCl2, 10 µM DTT, 1% glycerol, 25 °C, c(s) analysis; monomer to dimer
[4] = molecular target: Physcomitrella patens adenosine kinase 1 (PpADK1) (Physcomitrella patens) (UniProt O49923); experiment: SAXS; small-angle X-ray scattering, 50 mM Tris-HCl pH 7.5, three concentrations up to 5 mg/ml; Guinier analysis and Bayesian molecular weight estimate
[5] = molecular target: Physcomitrella patens adenosine kinase 1 (PpADK1) (Physcomitrella patens) (UniProt O49923)
[6] = molecular target: Physcomitrella patens adenosine kinase 1 (PpADK1) (Physcomitrella patens) (UniProt O49923); experiment: dynamic light scattering; hydrodynamic diameter, 20 mM Tris-HCl pH 7.5, 1 mM MgCl2, apoform or with 2 mM ATP, 22 °C
[7] = molecular target: Physcomitrella patens adenosine kinase 1 (PpADK1) (Physcomitrella patens) (UniProt O49923); experiment: SEC; gel permeation chromatography of moss ADKs on Superdex 200 10/30 HR, 20 mM Tris-HCl pH 7.5, 100 mM NaCl; dimers from 0.01 mg/ml (0.25 µM), mainly dimeric above 0.3 mg/ml (7.7 µM); monomer to dimer
[8] = molecular target: Physcomitrella patens adenosine kinase 2 (PpADK2) (Physcomitrella patens)
[9] = molecular target: Physcomitrella patens adenosine kinase 2 (PpADK2) (Physcomitrella patens); experiment: SEC; gel permeation chromatography of moss ADKs on Superdex 200 10/30 HR, 20 mM Tris-HCl pH 7.5, 100 mM NaCl; dimers from 0.01 mg/ml (0.25 µM), mainly dimeric above 0.3 mg/ml (7.7 µM); monomer to dimer
[10] = molecular target: Zea mays adenosine kinase 1 (ZmADK1) (Zea mays); experiment: SEC; gel permeation chromatography of maize ADKs at higher concentrations (30 mg/ml), Supplementary Fig. S1
[11] = molecular target: Zea mays adenosine kinase 2 (ZmADK2) (Zea mays); experiment: as above
[12] = molecular target: Zea mays adenosine kinase 3 (ZmADK3) (Zea mays); experiment: as above

Substance: Physcomitrella patens adenosine kinase 1 (PpADK1) (from UniProt O49923 1-343) (enzyme)
stoichiometry N [3]: 2
stoichiometry N [4]: 2
specific activity with 100 µM Ado (coupled reaction with PK and LDH, 30 °C) (nmol s^–1 mg^–1) [5]: 5.09
stoichiometry N [6]: 2
stoichiometry N [7]: 2

Substance: Physcomitrella patens adenosine kinase 2 (PpADK2) (enzyme)
specific activity with 100 µM Ado (coupled reaction with PK and LDH, 30 °C) (nmol s^–1 mg^–1) [8]: 4.7
stoichiometry N [9]: 2

Substance: Zea mays adenosine kinase 1 (ZmADK1) (enzyme)
stoichiometry N [10]: 2

Substance: Zea mays adenosine kinase 2 (ZmADK2) (enzyme)
stoichiometry N [11]: 2

Next, values leading:

stoichiometry N [1]: 2
stoichiometry N [2]: 2
Substance: Arabidopsis thaliana adenosine kinase 2 (6×His-AtADK2) (from UniProt Q9LZG0 1-345) (enzyme)

stoichiometry N [12]: 2
Substance: Zea mays adenosine kinase 3 (ZmADK3) (enzyme)
